Experimental data published in US20140221623A1 (Ablynx, published 2014).
Residue numbers refer to the chain shown, from its start. Several values for one entry are separate records, joined by “and”; a condition that tells them apart may be missing. Equal entries are not always repeated. Where two headings read alike, the source gives them in different places. Each block holds one molecule with its values, some of them ahead of it.

Columns and labels:
[1] = molecular target: T1, IL6-R on U266 cells (human, UniProt P08887 20-468); test: cell-based or functional assay
T1 sequence (looked up): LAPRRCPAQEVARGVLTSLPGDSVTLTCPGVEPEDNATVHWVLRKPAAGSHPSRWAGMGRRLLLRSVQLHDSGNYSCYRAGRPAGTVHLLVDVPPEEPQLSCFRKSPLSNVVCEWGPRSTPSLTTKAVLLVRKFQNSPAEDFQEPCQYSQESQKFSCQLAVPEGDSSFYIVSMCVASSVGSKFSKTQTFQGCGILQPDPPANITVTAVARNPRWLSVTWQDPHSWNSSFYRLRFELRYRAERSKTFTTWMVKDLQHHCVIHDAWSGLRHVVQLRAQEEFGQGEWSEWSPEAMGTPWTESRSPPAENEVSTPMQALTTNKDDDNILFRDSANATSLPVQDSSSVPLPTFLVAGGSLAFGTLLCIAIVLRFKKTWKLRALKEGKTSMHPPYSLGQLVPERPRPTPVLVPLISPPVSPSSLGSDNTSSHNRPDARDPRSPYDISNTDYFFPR

[2] = molecular target: T1, IL6-R on U266 cells; test: cell-based or functional assay; remark: listed apart in the source
[3] = molecular target: T2, Human soluble IL6-R (human, UniProt P08887 20-358); test: SPR (Biacore 3000), IL6-R on CM5 chip
T2 construct: Bought soluble receptor; biotinylated in some Alphascreen assays; also called sIL6-R; hIL-6R
T2 sequence (looked up): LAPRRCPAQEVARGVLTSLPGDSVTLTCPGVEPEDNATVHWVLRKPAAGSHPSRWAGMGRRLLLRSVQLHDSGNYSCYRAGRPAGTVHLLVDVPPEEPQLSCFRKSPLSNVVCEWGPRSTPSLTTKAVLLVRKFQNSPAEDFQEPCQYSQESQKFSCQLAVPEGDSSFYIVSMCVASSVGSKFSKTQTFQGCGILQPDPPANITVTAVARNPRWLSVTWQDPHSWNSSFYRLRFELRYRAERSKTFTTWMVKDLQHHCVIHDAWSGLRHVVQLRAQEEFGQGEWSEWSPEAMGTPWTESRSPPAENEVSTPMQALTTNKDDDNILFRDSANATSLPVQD

[4] = molecular target: T1, IL6-R on U266 cells; test: cell-based or functional assay; remark: listed apart in the source
[5] = molecular target: T2, Human soluble IL6-R; test: Alphascreen, 100 nM Nanobody; competitor Reference-Fab on beads
[6] = molecular target: T2, Human soluble IL6-R; test: SPR (Biacore), off-rate
[7] = molecular target: T1, IL6-R on U266 cells; test: cell-based or functional assay; remark: listed apart in the source

IC50 (+1% HSA), TF-1 proliferation [1]: 0.088
IC50 (w/o HSA), TF-1 proliferation [1]: 0.042
IC50, XG-1 proliferation [1]: 0.064 nM
Molecule: MAb BR-6 (antibody)

IC50, XG-1 proliferation [1]: 0.272 nM
Molecule: MAb BN-12 (antibody)

IC50, XG-1 proliferation [2]: 5.99 nM
Kd [3]: 0.86 nM
koff [3]: 0.00066 s⁻¹
kon [3]: 768000 M⁻¹ s⁻¹
B1: Reference Fab (Fab, V domains shown)
VH: QVQLQESGPGLVRPSQTLSLTCTVSGYSITSDHAWSWVRQPPGRGLEWIGYISYSGITTYNPSLKSRVTMLRDTSKNQFSLRLSSVTAADTAVYYCARSLARTTAMDYWGQGSLVTVSS
VL: DIQMTQSPSSLSASVGDRVTITCRASQDISSYLNWYQQKPGKAPKLLIYYTSRLHSGVPSRFSGSGSGTDFTFTISSLQPEDIATYYCQQGNTLPYTFGQGTKVEIKR
notes: Anti-human IL-6R Fab according to EP 0 628 639, made in E. coli periplasm; also called Tocilizumab-Fab

IC50, TF-1 proliferation [4]: 6.62 nM
IC50, XG-1 proliferation [2]: 5.37 nM
Kd [3]: 0.87 nM and 1.85 nM
koff [3]: 0.00034 s⁻¹ and 0.000396 s⁻¹ and 0.000417 s⁻¹
kon [3]: 391000 M⁻¹ s⁻¹ and 215000 M⁻¹ s⁻¹
% binding retained in competition with Reference-Fab [5]: 40%
koff [6]: 0.000417 s⁻¹
B2: IL6R11 (VHH)
VHH: EVQLVESGGGLVQAGGSLRLSCAASGFTFDDYAIGWFRQAPGKEHEGVSCISSSDGSTYYADSVKGRFTISSDNAKNTVYLQMNSLKPEDTAVYYCAAERDVPARSLCGSYYWYDYRGQGTQVTVSS
notes: also called PMP35E11; PMP 35 E11

IC50, TF-1 proliferation [4]: 42.9 nM
IC50, XG-1 proliferation [2]: 36.6 nM
Kd [3]: 10.2 nM
koff [3]: 0.00197 s⁻¹
kon [3]: 194000 M⁻¹ s⁻¹
% binding retained in competition with Reference-Fab [5]: 99%
B3: IL6R08 (VHH)
VHH: EVQLVESGGGLVQPGGSLRLSCVASGFSLDYYVIGWFRQAPGKEREGVSCISSSDGSTYYADSVKGRFTISRDNAKNTVYLQMNSLKPEDTAVYYCAADLLRTPEFCVDSAPYDYWGQGTQVTVSS
notes: also called PMP34A12; PMP 34 A12

IC50, TF-1 proliferation [4]: 29.7 nM
IC50, XG-1 proliferation [2]: 31 nM
Kd [3]: 5.9 nM
koff [3]: 0.00294 s⁻¹ and 0.00495 s⁻¹
kon [3]: 840000 M⁻¹ s⁻¹
% binding retained in competition with Reference-Fab [5]: 86%
koff [6]: 0.00294 s⁻¹
B4: IL6R02 (VHH)
VHH: EVQLVESGGGLVQAGGSLRLSCAASGRTFSSYDMGWYRQAPGKEREFVAVISRSGSSTYYADSVKGRFTISRDNAKNTVYLQMNSLKPEDTAIYYCKAEVVAGDYDYWGQGTQVTVSS
notes: also called PMP30C11; PMP 30 C11

Kd [3]: 0.418 nM
koff [3]: 0.00011 s⁻¹
kon [3]: 262000 M⁻¹ s⁻¹
% binding retained in competition with Reference-Fab [5]: 49%
B5: IL6R01 (VHH)
VHH: EVQLVESGGGFVQAGGSLRLSCIASGDNFSINRMGWYRQALGKQRELVAIITNHGSTNYADAVKGRFTISRDYAKNTVYLQMNGLKPDDTAVYYCNAYISEVGTWRDDYWGQGIQVTVSS
notes: also called PMP28E11; PMP 28 E11

IC50, TF-1 proliferation [4]: 28.1 nM
IC50, XG-1 proliferation with 1 mg/mL human serum albumin [7]: 17.5 nM
IC50, XG-1 proliferation [2]: 16.2 nM
Kd [3]: 3.03 nM
koff [3]: 0.00147 s⁻¹ and 0.0016 s⁻¹
kon [3]: 484000 M⁻¹ s⁻¹
% binding retained in competition with Reference-Fab [5]: 5%
koff [6]: 0.0016 s⁻¹
B6: IL6R03 (VHH)
VHH: EVQLVESGGGLVQAGGSLRLSCAASGSIFKVNAMGWYRQAPGKQRELVAGIISGGSTNYADSVKGRLTISRDNAKNTVYLQMNSLKPEDTAVYYCSFVTTNSDYDLGRDYWGQGTQVTVSS
notes: also called PMP31A4; PMP 31 A4

IC50, TF-1 proliferation [4]: 1.75 nM
IC50, XG-1 proliferation with 1 mg/mL human serum albumin [7]: 0.751 nM
IC50, XG-1 proliferation [2]: 0.603 nM
Kd [3]: 0.25 nM
koff [3]: 0.0001 s⁻¹ and 0.000114 s⁻¹
kon [3]: 402000 M⁻¹ s⁻¹
% binding retained in competition with Reference-Fab [5]: 96%
koff [6]: 0.000114 s⁻¹
B7: IL6R14 (VHH)
VHH: EVQLVESGGGLVQPGGSLRLSCAASGFSLDYYAIGWFRQAPGKEREGVSCMDSSSGTTSTYYSDSVKGRFTISRDDAKNTVYLQMNSLKPEDTAVYYCAADGHLNWGQRYVPCSQISWRGWNDYWGQGTQVTVSS
notes: also called PMP40H5; PMP 40 H5

koff [6]: 0.000503 s⁻¹
B8: PMP 34 E9 (VHH)
VHH: EVQLVESGGGLVQPGGSLRLSCAASGFTLDYYAIGWFRQAPGKEREGVSCISSSDGSTYYADSVKGRFTISRDNAKNTVYLQMNSLKPEDTAAYYCATDRSVYYCSGDAPEEYYWGQGTQVTVSS
notes: also called PMP34E9(t)

koff [6]: 0.00014 s⁻¹
B9: PMP 34 G3 (VHH)
VHH: B8 VHH with G47R, D108G

IC50, TF-1 proliferation [4]: 19.9 nM
IC50, XG-1 proliferation [2]: 7.29 nM
Kd [3]: 9.79 nM
koff [3]: 0.00141 s⁻¹ and 0.00127 s⁻¹
kon [3]: 144000 M⁻¹ s⁻¹
% binding retained in competition with Reference-Fab [5]: 64%
koff [6]: 0.00127 s⁻¹
B10: IL6R05 (VHH)
VHH: EVQLVESGGGLVQPGGSLRLSCAASGFTFGSYDMSWVRQAPGKGPEWVSAINSGGGSTYYADSVKGRFTISRDNAKNTLYLQMNSLKPEDTAVYYCATDWRYSDYDLPLPPPGDYWGQGTQVTVSS
notes: also called PMP32E10; PMP 32 E10

IC50, TF-1 proliferation [4]: 35 nM
IC50, XG-1 proliferation [2]: 50.5 nM
koff [3]: 0.000242 s⁻¹
% binding retained in competition with Reference-Fab [5]: 80%
koff [6]: 0.000242 s⁻¹
B11: IL6R07 (VHH)
VHH: EVQLVESGGGLVQPGGSLRLSCAASGFTLDYGAIGWFRQAPGKEREGVSCISSSTGSTYYADSVKGRFTISRDNGKNTVYLQMNSLKPEDTAVYYCAADKMWSPCLVAANEEALFEYDYWGQGTQVTVSS
notes: also called PMP33A3; PMP 33 A3

koff [6]: 0.00134 s⁻¹
B12: PMP 28 B1 (VHH)
VHH: EVQLVESGGGLVQPGGSLRLSCAASGFTLNYYAIGWFRQAPGKEREGVSCISSSDGSTYYADSVKGRFTISRDNAKNTFYLQMNSLKPEDTAVYYCAAEGLGDSDSPCGAAWYNDYWGQGTQVTVSS
notes: also called PMP28B1(t)

IC50, TF-1 proliferation [4]: 77.2 nM
IC50, XG-1 proliferation [2]: 42 nM
Kd [3]: 7.1 nM
kon [3]: 1.07e+06 M⁻¹ s⁻¹
% binding retained in competition with Reference-Fab [5]: 36%
koff [6]: 0.000886 s⁻¹
B13: IL6R06 (VHH)
VHH: EVQLVESGGGLVQAGGSLRLSCAASGNIFDDNTMGWTWNRQPPGKQRELVAIIATDGSTNYADSVKGRFTISRDNAKNTVYLQMNSLKPEDTAVYYCNLFSLRLGRDYWGQGTQVTVSS
notes: also called PMP32E2; PMP 32 E2

koff [6]: 0.002 s⁻¹
B14: PMP 34 E10 (VHH)
VHH: EVQLVESGGGLVQAGGSLRLSCAASGRTFSSYAMGWGRQAPGKEREFVATISWSGGSTYYADSVKGRFTISRDNAKNTVYLQMNSLKPEDTAVYYCAADLAEFKYSDYADYWGQGTQVTVSS

IC50, TF-1 proliferation [4]: 6.92 nM
IC50, XG-1 proliferation [2]: 2.75 nM
Kd [3]: 1.71 nM
koff [3]: 0.00116 s⁻¹ and 0.000896 s⁻¹
kon [3]: 678000 M⁻¹ s⁻¹
% binding retained in competition with Reference-Fab [5]: 103%
koff [6]: 0.000896 s⁻¹
B15: IL6R12 (VHH)
VHH: EVQLVESGGGLVQAGGSLRLSCAASGRTFSSYDMGWYRQAPGKEREFVAIITWNSSTYYADSVKGRFTISRDNAKNTVYLQMNSLKPEDTAIYYCNAQYGLGYAEDYWGQGTQVTVSS
notes: also called PMP35F4; PMP 35 F4

IC50, TF-1 proliferation [4]: 10 nM
IC50, XG-1 proliferation with 1 mg/mL human serum albumin [7]: 2.98 nM
IC50, XG-1 proliferation [2]: 2.75 nM
Kd [3]: 2.01 nM and 1.17 nM
koff [3]: 0.0013 s⁻¹ and 0.00139 s⁻¹ and 0.00129 s⁻¹
kon [3]: 641000 M⁻¹ s⁻¹ and 1.11e+06 M⁻¹ s⁻¹
% binding retained in competition with Reference-Fab [5]: 62%
koff [6]: 0.00139 s⁻¹
B16: IL6R09 (VHH)
VHH: EVQLVESGGGLVQAGGSLRLSCAASGRTSSSYDMTWYRQVPGKEREFVAVISWSGGSTYYADSVKGRFTISRDNAKNTVYLQMNSLKPEDTAIYYCNAYTGGGDDYWGQGTQVTVSS
notes: also called PMP34G9; PMP 34 G9

IC50, TF-1 proliferation [4]: 7.2 nM
IC50, XG-1 proliferation with 1 mg/mL human serum albumin [7]: 1.32 nM
IC50, XG-1 proliferation [2]: 1.4 nM
Kd [3]: 0.53 nM and 0.79 nM
koff [3]: 0.000121 s⁻¹ and 0.000109 s⁻¹ and 0.000178 s⁻¹
kon [3]: 231000 M⁻¹ s⁻¹ and 137000 M⁻¹ s⁻¹
% binding retained in competition with Reference-Fab [5]: 25%
koff [6]: 0.000178 s⁻¹
B17: IL6R13 (VHH)
VHH: EVQLVESGGGLVQPGGSLRLSCAASGFTFDDYGMSWVRQAPGRATEWVSAISWNGNNTYYTESMKGRFTISRDNAKNTVYLQMNSLKPEDTAVYYCVKGSTAIVGVPPTYPDEYDYWGQGTQVTVSS
notes: also called PMP35H4; PMP 35 H4

IC50, TF-1 proliferation [4]: 9.15 nM
IC50, XG-1 proliferation [2]: 2.55 nM
Kd [3]: 1.27 nM
koff [3]: 0.000526 s⁻¹ and 0.000509 s⁻¹
kon [3]: 414000 M⁻¹ s⁻¹
% binding retained in competition with Reference-Fab [5]: 102%
koff [6]: 0.000509 s⁻¹
B18: IL6R10 (VHH)
VHH: EVQLVESGGGLVQAGGSLRLSCAASGRTFSSYDMGWYRQAPGKEREFVAVIHWSSGSTYYADPVKGRFTISRDNAKNTVYLQMNSLKPEDTAIYYCNAFLPGPEGFHDYWGQGTQVTVSS
notes: also called PMP35C10; PMP 35 C10
